# Reference: patent publication US20200353078A1 (AstraZeneca / MedImmune, published 2020)
# Substitutions are numbered along the chain they refer to.
# T1: Cynomolgus IL-33 Flag®His (cynomolgus monkey)
# T1 construct: C-terminal FLAG 10xHis tag, E. coli; also called Mature Cynomolugus IL-33; cyno IL-33 FH
# T1 chain: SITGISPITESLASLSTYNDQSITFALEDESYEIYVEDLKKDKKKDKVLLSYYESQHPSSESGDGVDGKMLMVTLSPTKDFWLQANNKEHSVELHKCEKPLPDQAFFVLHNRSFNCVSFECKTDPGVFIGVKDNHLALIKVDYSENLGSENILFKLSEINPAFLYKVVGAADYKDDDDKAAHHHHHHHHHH
# T2: Mouse IL-33 Flag®His (mouse)
# T2 construct: C-terminal FLAG 10xHis tag, E. coli; also called Mature Mouse IL-33_FH; mouse IL-33 FH
# T2 chain: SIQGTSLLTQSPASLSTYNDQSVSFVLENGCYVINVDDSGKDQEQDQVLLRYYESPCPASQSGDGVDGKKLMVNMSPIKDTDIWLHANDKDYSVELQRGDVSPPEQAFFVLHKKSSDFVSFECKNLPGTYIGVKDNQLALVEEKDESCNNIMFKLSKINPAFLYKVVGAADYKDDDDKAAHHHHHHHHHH
# T3: Human IL-33 Flag®His (human)
# T3 construct: Mature IL-33 with C-terminal FLAG 10xHis tag, from E. coli; biotinylated via free cysteines where used biotinylated; also called Mature Human IL-33_FH; human IL-33 FH
# T3 chain: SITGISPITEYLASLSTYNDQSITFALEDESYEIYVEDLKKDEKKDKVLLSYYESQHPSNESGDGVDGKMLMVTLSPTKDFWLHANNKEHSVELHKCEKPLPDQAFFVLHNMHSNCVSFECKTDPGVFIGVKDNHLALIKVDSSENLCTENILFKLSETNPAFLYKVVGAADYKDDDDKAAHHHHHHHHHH
# T4: Human IL-33 (Axxora/Adipogen AG-40B-0038) (human, UniProt O95760 112-270, limits assumed)
# T4 sequence (looked up): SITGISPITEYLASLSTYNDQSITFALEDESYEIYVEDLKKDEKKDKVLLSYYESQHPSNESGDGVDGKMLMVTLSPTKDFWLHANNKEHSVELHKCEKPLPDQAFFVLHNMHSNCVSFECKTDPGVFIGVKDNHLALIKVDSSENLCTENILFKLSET
# T5: His10/Avi Human IL33-01 (human)
# T5 chain: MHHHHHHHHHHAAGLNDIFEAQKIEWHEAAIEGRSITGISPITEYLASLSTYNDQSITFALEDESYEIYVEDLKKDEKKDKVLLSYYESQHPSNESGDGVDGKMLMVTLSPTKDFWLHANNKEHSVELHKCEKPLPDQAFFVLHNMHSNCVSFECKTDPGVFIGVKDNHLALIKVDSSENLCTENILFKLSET
# T6: Full-length human IL-33 (amino acids 1-270), HEK293-EBNA cell lysate (human, UniProt O95760 1-270)
# T6 sequence (looked up): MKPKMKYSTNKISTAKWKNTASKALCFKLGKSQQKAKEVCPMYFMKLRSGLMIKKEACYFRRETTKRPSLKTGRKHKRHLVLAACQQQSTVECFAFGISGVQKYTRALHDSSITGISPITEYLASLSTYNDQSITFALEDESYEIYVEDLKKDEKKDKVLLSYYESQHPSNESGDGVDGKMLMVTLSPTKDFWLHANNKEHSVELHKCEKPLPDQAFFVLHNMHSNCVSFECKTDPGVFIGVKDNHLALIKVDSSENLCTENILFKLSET
# T7: His10/Avi Cyno IL-33 (cynomolgus monkey)
# T7 construct: also called Cynomolgus 10His Avitag IL-33; biotinylated His Avi cynomolgus IL-33
# T7 chain: T5 chain with E77K, N94S, H118Q, M146R, H147S, S148F, S177Y, C182G, T183S, T193I
# B1: IL330149 IgG (antibody, V domains shown)
# VH: EVQLLESGGGLVQPGGSLRLSCAASGFTFSSYAMSWVRQAPGKGLEWVSAISGSGGSTYYADSVKGRFTISRDNSKNTLYLQMNSLRAEDTAVYYCVRTLAYSTSWFFDYWGRGTLVTVSS
# VL: SYELTQPPAVSVSPGQTARITCSGDALPKKYAYWYQQKSGQAPVLVIYEDAKRPSGIPERFSGSSSGTMATLTVSGAQVEDEADYYCYSTDSSGPVFGGGTKLTVL
# notes: IgG1 or IgG1-TM; also called IL33149
# B2: IL330020 IgG1 (antibody, V domains shown)
# VH: QVQLVQSGAEVKKPGASVKVSCKASGYTFTSYGISWVRQAPGQGLEWMGWISDYQGYTKYAEKFQGRVTMTTDTSTNTAYMELRSLRSDDTAVYYCARLYSSGWIRQYHFDYWGRGTLVTVSS
# VL: SYELTQPPSVSVSPGQTASITCSGDNLKDKYVSWYQQKPGQAPVLVLYQDRKRPSGIPERFSGSNSGNTATLTISGTQAMDEADYYCQAWDSGTAFGGGTKVTVL
# notes: Human IgG1, lambda constant
# B3: 33_640237-2 IgG1 (antibody, V domains shown)
# VH: EVQLLESGGGLVQPGGSLRLSCAASGFTFSSYAMSWVRQAPGKGLEWVSGIADDFTSTYYADPVKGRFTISRDNSKNTLYLQMNSLRAEDTAVYYCARDLWMMNYAGGLRYPFGYWGQGTMVTVSS
# VL: SYVLTQPPSVSVSPGQTASITCSGERMGDKYAAWYQQKPGQSPVLVIYRDTKRPSGIPERFSGSNSGNTATLTISGTQAMDEADYYCGVLKQDTGVFGGGTKVTVL
# B4: 33_640087-7 IgG1 (antibody, V domains shown)
# VH: EVQLLESGGGLVQPGGSLRLSCAASGFTFSSYAMSWVRQAPGKGLEWVSGISAIDQSTYYADSVKGRFTISRDNSKNTLYLQMNSLRAEDTAVYYCARQKFMQLWGGGLRYPFGYWGQGTMVTVSS
# VL: B3 VL with R26G, L90I, K91Q, Q92D, D93N
# notes: IgG1
# B5: IL330099 IgG (antibody, V domains shown)
# VH: QVQLQQSGAEVKKPGASVKVSCKASGYTFTSFYMNWVRQAPGQGLEWMGIISPRGGTTSYAQNFQGRVTMTRDTSTSTVYMELSGLRSDDTAVYYCATESFYYGSGTYSGDYYLYSGMADWGKGTLVTVSS
# VL: SSELTQDPAVSAALGQTVRITCQGDSLRSYYASWYQQKPGQAPVLVIYGKNDRPSGIPDRFSGSSSGNTASLTITGAQAEDEADYYCNSRDSSGNHVVFGGGTKLTVL
# notes: IgG1 or IgG1-TM
# Legend:
# [1] = target: T1, Cynomolgus IL-33 Flag®His; test: ELISA, biotinylated antigen on streptavidin plate, anti-human IgG HRP
# Protocol: (§1) 96-well Greiner polypropylene plates (Greiner, 650201) were used for dilution preparation. Generally, each dilution was prepared in duplicate. IgG dilutions were allowed to block in PBS-M for 1 hour at room temperature before being used directly in ELISA experiments.
# (§2) Streptavidin plates (Thermo Scientific, AB-1226) were coated with biotinylated antigen at 0.5 μg/ml in PBS and incubated overnight at 4° C. Plates were washed 3× with PBS and blocked with 300 μl/well blocking buffer (PBS-M) for 1 hour. Plates were washed 1× with PBS and blocked samples added, 50 μl/well for 1 hour at room temperature. […] Plates were washed 3× with PBS-T and developed with TMB, 50 μl/well (Sigma, T0440). The reaction was quenched with 50 μl/well 0.1M H2504 before reading on an EnVision™ plate reader, or similar equipment, at 450 nm.
# (§3) Species cross-reactivity of anti-IL-33 antibodies was determined using a plate-based ELISA. Streptavidin plates (Thermo Scientific, AB-1226) were coated with biotinylated antigen at 0.5 μg/ml in PBS. Binding of purified IgG preparations was detected with anti-human IgG HRP (Sigma, A0170).
# Mouse IL-33 Flag®His = target: T2, Mouse IL-33 Flag®His; test: as above
# Protocol: as §1, §2, §3
# Human IL-33 Flag®His [2] = target: T3, Human IL-33 Flag®His; test: as above
# Protocol: as §1, §2, §3
# [3] = target: T4, Human IL-33 (Axxora/Adipogen …); test: cell-based or functional assay
# Human IL-33 Flag®His [4] = target: T3, Human IL-33 Flag®His; test: cell-based or functional assay
# Human IL-33 Flag®His [5] = target: T3, Human IL-33 Flag®His; test: HTRF competition, IgG titrated against biotinylated human ST2-Fc
# Protocol: The ability of anti-IL-33 antibodies to inhibit the binding of FLAG®-His tagged IL-33 to the ST2 receptor was assessed in a biochemical HTRF® (Homogeneous Time-Resolved Fluorescence, Cisbio International) competition assay, the principles of which are described above.
# Activity of purified IgG preparations were determined by competing a dilution series of the purified IgG against biotinylated human or mouse ST2.Fc for binding to FLAG® His-tagged human, cynomolgus or mouse IL-33.
# Purified or unpurified anti-IL-33 antibody samples were tested for inhibition of FLAG®-His tagged IL-33 binding ST2-Fc by adding 10 microlitres of each dilution of antibody test sample to a 384 well low volume assay plate (Costar 3676). Next, a solution containing 4 nM biotinylated human or mouse ST2-Fc and 20 nM streptavidin XL665 detection (Cisbio International, 611SAXLB) was prepared and 5 microlitres of the mix added to the assay plate. This was followed by the addition of 5 microlitres of a solution containing 1.2 nM FLAG®-His tagged human, cynomolgus or mouse IL-33 combined with 1.72 nM anti-FLAG® cryptate detection (Cisbio International, 61FG2KLB). All dilutions were performed in assay buffer comprised of Dulbeccos PBS (Invitrogen, 14190185) containing 0.8 M potassium fluoride (BDH 103444T) and 0.1% BSA (Sigma A9576). Assay plates were incubated for 2 hour at room temperature followed by 16 hour at 4° C. before reading time resolved fluorescence at 620 nm and 665 nm emission wavelengths using an EnVision plate reader (Perkin Elmer).
# His10/Avi Human IL33-01 [6] = target: T5, His10/Avi Human IL33-01; test: cell-based or functional assay
# [7] = target: T6, Full-length human IL-33 (amino acids …); test: cell-based or functional assay
# His10/Avi Human IL33-01 [8] = target: T5, His10/Avi Human IL33-01; test: cell-based or functional assay
# His10/Avi Human IL33-01 [9] = target: T5, His10/Avi Human IL33-01; test: HTRF epitope competition, IgG titrated; competitor DyLight labelled 33_640117 IgG; overnight
# Protocol: (§4) As the epitope competition assay utilising 33_640027 reached its limit of sensitivity, an assay using 33_640117 was used for testing purified scFv samples. The assay was essentially as described for the 33v20064 competition assay with the following modifications: 2.5 nM DyLight labelled 33_640117 was prepared and 2.5 microlitres added to the assay plates. This was followed by the addition of 2.5 microlitres of a solution containing 0.12 nM biotinylated human IL-33-01 combined with 0.75 nM streptavidin cryptate detection (Cisbio International, 610SAKLB) for the human assay or a solution containing 0.24 nM biotinylated cynomolgus IL-33 combined with 1.5 nM streptavidin cryptate detection (Cisbio International, 610SAKLB) for the cynomolgus assay. Fluorescence was read after one hour and overnight incubation.
# (§5) The ability of anti-IL-33 antibodies to inhibit the binding of biotinylated His Avi human IL-33 or cynomolgus His Avi IL-33 to the DyLight labelled 33_640117 IgG was assessed in a biochemical HTRF® (Homogeneous Time-Resolved Fluorescence, Cisbio International) competition assays as described above.
# His10/Avi Human IL33-01 [10] = target: T5, His10/Avi Human IL33-01; test: HTRF epitope competition, IgG titrated; competitor DyLight labelled 33_640117 IgG; 1 hour
# Protocol: as §4, §5
# His10/Avi Cyno IL-33 = target: T7, His10/Avi Cyno IL-33; test: as above
# Protocol: as §4, §5
Binder,EC50 [1] [nM],EC50 (Mouse IL-33 Flag®His) [nM],EC50 (Human IL-33 Flag®His [2]) [nM],"IC50, Mast cell IL-6 production [3] [nM]","IC50 (nM) vs. His Avi IL-33, Huvec IL-8 assay (His10/Avi Human IL33-01 [6]) [nM]",other results
B1,0.35,0.17,0.23,298,–,–
B2,–,–,–,–,–,"IC50, human ST2 transfected HeLa NFkB luciferase reporter assay (Human IL-33 Flag®His [4]): 147 nM; IC50 (Human IL-33 Flag®His [5]): 40 nM"
B3,–,–,–,–,0.105,–
B4,–,–,–,–,0.041,"IC50, Huvec IL-8 assay vs. full length IL-33 cell lysate [7]: 0.073 nM; IC50, Huvec IL-8 assay vs. His Avi IL-33 (His10/Avi Human IL33-01 [8]): 0.025 nM; IC50 (His10/Avi Human IL33-01 [9]): 0.1 nM; IC50 (His10/Avi Human IL33-01 [10]): 0.1 nM; IC50 (His10/Avi Cyno IL-33): 0.2 nM"
B5,0.35,0.38,0.4,1220,–,–
